# Measured values taken from IntAct's records for PubMed 29039417.
# B1: Protein PTHB1 (Homo sapiens), Q3SYG4 (parent)
# chain: MSLFKARDWWSTILGDKEEFDQGCLCLANVDNSGNGQDKIIVGSFMGYLRIFSPHPAKTGDGAQAEDLLLEVDLRDPVLQVEVGKFVSGTEMLHLAVLHSRKLCVYSVSGTLGNVEHGNQCQMKLMYEHNLQRTACNMTYGSFGGVKGRDLICIQSMDGMLMVFEQESYAFGRFLPGFLLPGPLAYSSRTDSFLTVSSCQQVESYKYQVLAFATDADKRQETEQQKLGSGKRLVVDWTLNIGEQALDICIVSFNQSASSVFVLGERNFFCLKDNGQIRFMKKLDWSPSCFLPYCSVSEGTINTLIGNHNNMLHIYQDVTLKWATQLPHIPVAVRVGCLHDLKGVIVTLSDDGHLQCSYLGTDPSLFQAPNVQSRELNYDELDVEMKELQKIIKDVNKSQGVWPMTEREDDLNVSVVVSPNFDSVSQATDVEVGTDLVPSVTVKVTLQNRVILQKAKLSVYVQPPLELTCDQFTFEFMTPDLTRTVSFSVYLKRSYTPSELEGNAVVSYSRPTDRNPDGIPRVIQCKFRLPLKLICLPGQPSKTASHKITIDTNKSPVSLLSLFPGFASQSDDDQVNVMGFHFLGGARITVLASKTSQRYRIQSEQFEDLWLITNELILRLQEYFEKQGVKDFACSFSGSIPLQEYFELIDHHFELRINGEKLEELLSERAVQFRAIQRRLLARFKDKTPAPLQHLDTLLDGTYKQVIALADAVEENQGNLFQSFTRLKSATHLVILLIALWQKLSADQVAILEAAFLPLQEDTQELGWEETVDAAISHLLKTCLSKSSKEQALNLNSQLNIPKDTSQLKKHITLLCDRLSKGGRLCLSTDAAAPQTMVMPGGCTTIPESDLEERSVEQDSTELFTNHRHLTAETPRPEVSPLQGVSE
# partner: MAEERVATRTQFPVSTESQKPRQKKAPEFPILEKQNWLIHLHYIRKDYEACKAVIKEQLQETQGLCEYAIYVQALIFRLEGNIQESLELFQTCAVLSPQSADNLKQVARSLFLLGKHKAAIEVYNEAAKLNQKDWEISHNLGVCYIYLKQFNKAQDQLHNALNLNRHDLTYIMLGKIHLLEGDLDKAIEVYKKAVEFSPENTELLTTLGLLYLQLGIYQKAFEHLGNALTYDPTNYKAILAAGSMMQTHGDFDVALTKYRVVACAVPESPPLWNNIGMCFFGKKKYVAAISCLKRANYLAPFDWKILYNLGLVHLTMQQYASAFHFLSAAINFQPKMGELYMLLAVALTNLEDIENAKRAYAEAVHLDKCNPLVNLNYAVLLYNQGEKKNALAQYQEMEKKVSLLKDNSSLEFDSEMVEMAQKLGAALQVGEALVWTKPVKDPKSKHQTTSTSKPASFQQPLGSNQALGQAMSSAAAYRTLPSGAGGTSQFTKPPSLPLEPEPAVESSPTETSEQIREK
# Variants of: B1
# Settings: with bbs4_human BBS4, Q96RK4
row,Variant,effect of a mutation on the interaction
1,Q539K,with no effect
2,N412K,with no effect
3,P419A,with no effect
4,N794K,with no effect
5,L851K,with no effect
6,V415A,with no effect
7,M837A,with no effect
8,V577E,with no effect
9,G584E,disrupting interaction strength
10,F624A,with no effect
11,Q693E,with no effect
12,S558E,with no effect
13,L666E,disrupting interaction strength
14,V459E,with no effect
15,L720A,with no effect
16,S418A,with no effect
17,H811K,with no effect
18,S886K,with no effect
19,S886A,with no effect
20,I640A,with no effect
21,D470E,with no effect
22,A739E,with no effect
23,T473A,with no effect

row,Variant,effect of a mutation on the interaction
1,S788A,with no effect
2,Q643A,with no effect
3,V575A,with no effect
4,L533K,with no effect
5,H652A,with no effect
6,V713K,with no effect
7,N420E,with no effect
8,K554E,with no effect
9,R514E,with no effect
10,E499A,with no effect
11,N448K,with no effect
12,N448E,with no effect
13,P520K,with no effect
14,T836E,with no effect
15,S849A,with no effect
16,L799A,with no effect
17,Y645K,with no effect
18,P802T,disrupting interaction strength
19,P564K,with no effect
20,L436A,with no effect
21,L611E,with no effect
22,L611K,with no effect
23,C843K,with no effect

row,Variant,effect of a mutation on the interaction
1,T725K,with no effect
2,S414K,with no effect
3,S414E,with no effect
4,T595E,with no effect
5,T496E,with no effect
6,F566E,with no effect
7,L648A,with no effect
8,A427E,with no effect
9,H732A,with no effect
10,P877K,with no effect
11,F721A,with no effect
12,F721K,disrupting interaction strength
13,F721E,with no effect
14,R669K,with no effect
15,T782K,with no effect
16,D422E,with no effect
17,D422K,with no effect
18,Y490A,with no effect
19,D513E,with no effect
20,T434K,with no effect
21,L752K,with no effect
22,V416A,with no effect
23,R587K,with no effect

row,Variant,effect of a mutation on the interaction
1,R587E,with no effect
2,Q677Y,disrupting interaction strength
3,Y460A,with no effect
4,D573K,with no effect
5,R824K,with no effect
6,D762K,with no effect
7,D551K,with no effect
8,S639K,with no effect
9,S639A,with no effect
10,L665A,with no effect
11,D817A,with no effect
12,K728R,disrupting interaction strength
13,P511A,with no effect
14,P537E,with no effect
15,I738K,disrupting interaction strength
16,V417E,with no effect
17,V417A,with no effect
18,Q858K,with no effect
19,S439A,with no effect
20,A592E,with no effect
21,A592K,with no effect
22,E714K,with no effect
